From paper PMC9163089

Legend:
[1] = biological target: Cytosolic domain of YscV (YscVC, residues 356-704), purified alone (Yersinia enterocolitica); experiment: SEC; analytical SEC of YscVC alone at 10, 25 and 100 µM initial concentration, Superdex 200 10/300GL, 20 mM Tris pH 8, 150 mM NaCl; monomer to nonamer
[2] = biological target: Cytosolic domain of YscV (YscVC, residues 356-704), co-expressed with YscX and YscY (Yersinia enterocolitica); experiment: SEC
[3] = biological target: Cytosolic domain of YscV (YscVC, residues 356-704), co-expressed with YscX and YscY (Yersinia enterocolitica); experiment: crystal structure

Substance: Cytosolic domain of YscV (YscVC, residues 356-704), purified alone (domain or fragment)
- stoichiometry N [1]: 9

Substance: Cytosolic domain of YscV (YscVC, residues 356-704), co-expressed with YscX and YscY (domain or fragment)
- stoichiometry N [2]: 9
- stoichiometry N [3]: 9
